According to US20180215829A1 (CRESCENDO BIOLOGICS, published 2018):

What was measured:
[1] = molecular target: T1, recombinant human IL-17RA Fc fusion protein (R&D Systems 177-IR-100) (human, UniProt Q96F46 33-320); experiment: IL-17RA ligand inhibition ELISA (FIG. 10A): VH competes with IL-17A for coated IL-17RA-Fc
T1 construct: Bought protein; not shown: Fc domain of human IgG1
T1 sequence: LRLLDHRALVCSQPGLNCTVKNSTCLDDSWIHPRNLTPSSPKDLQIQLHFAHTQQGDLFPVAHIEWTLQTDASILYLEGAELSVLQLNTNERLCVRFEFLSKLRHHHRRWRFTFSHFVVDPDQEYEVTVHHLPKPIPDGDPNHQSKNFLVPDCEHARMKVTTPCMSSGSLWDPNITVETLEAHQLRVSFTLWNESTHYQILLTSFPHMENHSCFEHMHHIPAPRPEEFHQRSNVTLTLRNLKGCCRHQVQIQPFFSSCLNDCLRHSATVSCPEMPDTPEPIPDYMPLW
Experimental: VH, both purified and crude periplasmic extracts, were also tested for their ability to inhibit the interaction of IL-17A with recombinant IL-17RA-Fc. […] Following washing of excess coating antigen, as described above, the wells of the plate were incubated with 3% Marvel/PBS to block non-specific protein interactions. VH preparations, crude periplasmic extracts or purified VH, or suitable controls, were prepared with 1 nM recombinant IL-17A (Peprotech, cat# AF-200-17) in 3% skimmed milk powder/PBS solution in polypropylene plates or tubes. The mixture was then transferred to the assay plate and incubated for 1 hour at room temperature. Excess protein was removed by washing and bound IL-17A was detected by incubation with biotinylated anti-IL-17A Mab (R & D Systems, cat BAF317) followed by the addition of neutravidin-HRP (Pierce, cat#31030) and TMB substrate (Sigma, cat# T0440). The TMB reaction was stopped by addition of 0.5M H₂SO₄ and absorbances were measured at 450 nm in a plate reader.

[2] = molecular target: T2, human IL-17RA on HT1080 cells (human, UniProt Q96F46 33-866); experiment: cell-based or functional assay
T2 sequence: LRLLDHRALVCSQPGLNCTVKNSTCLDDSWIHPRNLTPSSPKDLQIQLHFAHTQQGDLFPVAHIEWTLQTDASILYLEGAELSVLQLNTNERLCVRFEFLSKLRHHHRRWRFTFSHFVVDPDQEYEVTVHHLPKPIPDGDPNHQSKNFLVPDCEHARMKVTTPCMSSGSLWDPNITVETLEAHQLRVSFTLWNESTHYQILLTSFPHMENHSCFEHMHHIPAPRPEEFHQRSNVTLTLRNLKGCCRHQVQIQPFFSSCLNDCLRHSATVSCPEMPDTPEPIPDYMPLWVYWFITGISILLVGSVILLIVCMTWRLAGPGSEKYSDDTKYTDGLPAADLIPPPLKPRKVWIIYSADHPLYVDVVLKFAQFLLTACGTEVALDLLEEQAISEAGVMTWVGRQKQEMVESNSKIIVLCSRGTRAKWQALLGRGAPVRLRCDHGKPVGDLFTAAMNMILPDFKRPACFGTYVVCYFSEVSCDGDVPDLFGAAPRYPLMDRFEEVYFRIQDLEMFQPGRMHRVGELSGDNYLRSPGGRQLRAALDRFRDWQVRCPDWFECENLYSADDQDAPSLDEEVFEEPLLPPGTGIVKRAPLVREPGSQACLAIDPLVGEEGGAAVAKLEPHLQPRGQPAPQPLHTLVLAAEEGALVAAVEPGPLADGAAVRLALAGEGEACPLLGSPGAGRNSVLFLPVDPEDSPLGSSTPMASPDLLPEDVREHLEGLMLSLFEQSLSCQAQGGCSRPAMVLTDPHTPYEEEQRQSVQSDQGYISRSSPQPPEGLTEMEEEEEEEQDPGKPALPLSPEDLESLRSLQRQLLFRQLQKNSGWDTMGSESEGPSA

[3] = molecular target: T2, human IL-17RA on HT1080 cells; experiment: cell-based or functional assay; remark: listed apart in the source
[4] = molecular target: T3, IL-17RD (UniProt Q8NFM7 17-299, limits assumed); experiment: specificity ELISA, antigen coated, anti-His-HRP detection
T3 sequence (looked up): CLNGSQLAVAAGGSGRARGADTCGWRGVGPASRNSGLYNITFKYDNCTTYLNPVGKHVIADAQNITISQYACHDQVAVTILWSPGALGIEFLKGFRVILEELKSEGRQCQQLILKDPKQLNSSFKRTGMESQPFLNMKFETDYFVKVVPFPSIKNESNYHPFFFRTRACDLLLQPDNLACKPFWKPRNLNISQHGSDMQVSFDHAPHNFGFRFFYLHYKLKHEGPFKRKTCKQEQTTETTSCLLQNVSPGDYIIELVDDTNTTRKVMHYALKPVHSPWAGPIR
Experimental: (§1) The binding ELISA for crude or purified VH was similar to the serum ELISA and phage ELISA, previously described, mostly differing in the final detection steps. Briefly, antigen was immobilised on maxisorb plates (Nunc 443404) by adding 50 ul volumes at 0.1-1 ug/ml in PBS and incubating at 4° C. overnight. Following coating, the antigen solution was aspirated and the plates were washed using PBS (prepared from PBS tablets, Oxoid cat no. BR0014G) supplemented with 0.05% Tween® 20 (sigma P1379), followed by washes with PBS without added Tween®. To block non-specific protein interactions, a solution of 3% skimmed milk powder (Marvel) in PBS was added to the wells and the plate was incubated for at least one hour at room temperature. Dilutions of periplasmic extract or purified VH in 3% Marvel/PBS were prepared in polypropylene tubes or plates and incubated for at least one hour at room temperature prior to transfer to the blocked ELISA plate where a further incubation of at least one hour took place. Unbound protein was then washed away using repetitive washes with PBS/Tween® followed by PBS. A solution of HRP-conjugated anti-His Ab (Miltenyi Biotec, 130-092-785), prepared at 1:1000 dilution in PBS/3% Marvel was then added to each well and a further incubation at room temperature for at least one hour took place. Unbound detection antibody was removed by repeated washing using PBS/Tween® and PBS. The ELISA was then developed using TMB substrate (Sigma cat. no. T0440) and the reaction was stopped after 10 minutes by the addition of 0.5M H₂SO₄ solution (Sigma cat. no. 320501). Absorbances were determined by reading at 450 nm.

[5] = molecular target: T4, IL-17RB (UniProt Q9NRM6 18-289, limits assumed); experiment: as above
T4 sequence (looked up): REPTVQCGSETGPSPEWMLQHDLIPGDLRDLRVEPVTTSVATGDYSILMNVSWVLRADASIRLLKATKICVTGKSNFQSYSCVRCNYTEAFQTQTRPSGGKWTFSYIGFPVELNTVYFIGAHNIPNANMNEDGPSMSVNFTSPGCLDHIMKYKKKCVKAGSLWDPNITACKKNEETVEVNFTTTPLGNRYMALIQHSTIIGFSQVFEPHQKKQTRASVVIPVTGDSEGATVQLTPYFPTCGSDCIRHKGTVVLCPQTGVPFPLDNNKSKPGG
Experimental: as §1

- IC50 [1]: 4 nM
- IC50 (nM), cell-based assay [2]: 363 nM
- Cell assay IC50 [3]: 280 nM
- binding result [4]: no binding
- binding result [5]: no binding
B1: VH clone 2.1 (VHH)
VHH: QVQLVQSGAEVKKPGASVKVSCKASGYPFTSYDINWVRQATGQSLEWMGWMNPNSGDTVYAQKFQGRVTMTRNTSISTAYMELSSLRSEDTAVYFCARGRRDDWKNNYWGQGTLVTVSS
notes: Human VH single domain antibody, no light chain; Parent clone of family 2; also called VH 2.1
